For experiment [1], the target named is T1, mouse TREM2 on cells (mouse), Q99NH8.
T1 chain: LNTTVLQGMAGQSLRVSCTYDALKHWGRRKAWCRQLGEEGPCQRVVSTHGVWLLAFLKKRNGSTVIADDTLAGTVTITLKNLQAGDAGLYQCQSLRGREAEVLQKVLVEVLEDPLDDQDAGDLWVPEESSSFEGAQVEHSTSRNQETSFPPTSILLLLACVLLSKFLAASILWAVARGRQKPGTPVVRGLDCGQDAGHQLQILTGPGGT
The experiment can be described thus: KD cell binding.

Experiment [2] has the same target. The experiment can be described thus: FACS, BWZmT2 cells. A general note: Flow cytometry measures light scatter and fluorescence of single cells or particles in a stream.
Experiment [3] has the same target. The experiment can be described thus: cell-based or functional assay.
Experiment [4] has the same target. The experiment can be described thus: FACS, WT mouse macrophages.
In experiment [5] the target is TREM2 protein of the 'Percent APOE binding' column of Table 9B. The experiment can be described thus: TREM2 binding to APOE with antibody; assay not described for this table.
The target in experiment [6] is recombinant human TREM2-DAP12 fusion protein expressed on cells (human). The experiment can be described thus: cell-based or functional assay.

Results on 7 molecules are retold here after patent publication US20230295297A1.

Positions count from the first letter of the chain named.

Chain of recombinant human TREM2-DAP12 fusion protein expressed on cells (human) (chain, as listed by the source limits assumed, form in doubt): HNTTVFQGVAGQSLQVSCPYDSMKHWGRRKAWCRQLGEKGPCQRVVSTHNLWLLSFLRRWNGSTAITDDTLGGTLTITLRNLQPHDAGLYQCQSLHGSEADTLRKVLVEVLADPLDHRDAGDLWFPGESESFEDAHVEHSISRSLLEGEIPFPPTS

B1: 3A7 (antibody, IgG1, V domains shown)
VL: not shown
VH: EVKLEESGGGLVQPGGSMKLSCAASGFTFSDAWMGWVRQSPEKGLEWVAEIRDKVKNHATYYAESVKGRFTISRDDSKSTVYLQMNTLRADDTGIYYCRLGVFDYWGQGTTLTVSS
modifications: not checked
In the case of B1, the Kd – broadly, the equilibrium constant for the complex coming apart – in experiment [1] stood at 5.86 nM. In experiment [2], this molecule returned an MFI BWZmT2 of 2870 MFI. Besides, in experiment [3], the BWZmT2 LUC Plate-bound (FOB) was found to be 7.8 FOB, the BWZmT2 LUC Solution (FOB) was 7.18 FOB and the decrease in cell surface level of TREM2 on BMDM (FACS) came to 58%. In experiment [4], this molecule yielded a % Positive WT BMMACS of 26.3%. For the same molecule, in experiment [5], the Percent APOE binding was found to be 92.3%.

B2: 8A1 (antibody, IgG2a, V domains shown)
VL: DIQMTQSPASLSVSVGETVTITCRTSENVYSNLAWYQQKQGKSPQLLVYAATNLADGVPSRFSASGSATQFSLKINSLQSADFGSYYCHHFWGTPYTFGGGTKLEMN
VH: EVQLQQSGAELVKPGASVKISCKASGYAFSNYWMSWVKQRPGKGLEWIGQIYPGDGDTKYNGKFEGKATLTADKSSSTAYMQLSSLTSEDSAVYFCSREKGADYYGSTYSAWFSYWGQGTLVTVSA
On to B2, for which, in experiment [6], the BWZhT2 LUC Plate-bound (FOB) was determined as 5.46 FOB and the BWZhT2 LUC Solution (FOB) came out at 0.35 FOB.

B3: 6H2 (antibody, IgG2a, V domains shown)
VL: DVLMTQTPLSLPVSLGDQASISCRSSQSIVHSNGNTYLEWYLQKPGQSPKLLIYKVSNRFSGVPDRFSGSGSGTDFTLKISRVEAEDLGVYYCFQGSHVPFTFGSGTKLEIK
VH: QVQLQESGPGLVQPSQSLSIICTVSAFSLTNYAVHWIRQSPGKGLEWLGVIWSGGSTAFNAAFISRLNISKDNSKSQVFFKMNSLQSDDTAIYYCATHYYRSTYAFSYWGQGTLVTVSA
With B3, in experiment [6], the BWZhT2 LUC Plate-bound (FOB) turned out to be 1.1 FOB, the BWZhT2 LUC Solution (FOB) is 3.6 FOB and the BWZhT2 LUC Solution + PS (Δ Bmax) was -40200.

B4: 10A9 (antibody, IgG1, V domains shown)
VL: B3 VL with L3V, S28T, V30I, Q43R, S61C, F101Y, S105G, K108E
VH: QVQLQQSGAEVVKPGASVKMSCKTSGYPFSNFWITWVKQRPGQGLVWIGDIYPGSDNRNFNERFKTKATLTVDTSSSTAYMHLSSLTSEDSAVYFCAREAYYTNPGFAYWGQGTLVTVSA
With B4, in experiment [6], the BWZhT2 LUC Plate-bound (FOB) worked out at 2.18 FOB and the BWZhT2 LUC Solution (FOB) was 0.31 FOB.

B5: 3A2 (antibody, IgG1, V domains shown)
VL: B3 VL with L3V, S28T, V30I, Q43R, F101Y, S105G, K108E
VH: B4 VH with V11L, R58S, F60Y, R63K, A120T
For the molecule B5, in experiment [6], the BWZhT2 LUC Plate-bound (FOB) was 1.07 FOB and the BWZhT2 LUC Solution (FOB) was found to be 0.32 FOB.

B6: 9F5 (antibody, IgG1, V domains shown)
VL: DVVMTQTPLSLPVSLGDQASISCRSSQSLVHSNGYTYLHWYLQKPGQSPKLLIYKVSNRFSGVPDRFSGSGSGTDFTLKISRVEADDLGVYFCSQSTRVPYTFGGGTKLEIK
VH: QVQLQQSGPELVKPGASLKISCKASGYAFSSSWMNWVKQRPGKGLEWIGRIYPGDGDTNYNGEFRVRATLTADTSSTTAYMQLSSLTSEDSAVYFCARLLRNQPGESYAMDYWGQGASVTVSS
Turning to B6, in experiment [6], the BWZhT2 LUC Plate-bound (FOB) turned out to be 2.48 FOB, the BWZhT2 LUC Solution (FOB) was determined as 1.75 FOB and the BWZhT2 LUC Solution + PS (Δ Bmax) turned out to be 2930.

B7: 9G1 (antibody, IgG1, V domains shown)
VL: B6 VL with V3L, S25F, Y35N, K79R, R82G, D86E, Y101P
VH: QVQLQQSGAELVKPGASVKLSCKASGYIFTTYWIHWVKQRPGRGPEWIGRIDPNNGDTNYNEKFKTKATLTVDKPSSTADMQLSSLTSEDSAVYYCVMTGTDFDYWGQGTTLTVSS
In the case of B7, in experiment [6], the BWZhT2 LUC Plate-bound (FOB) stood at 1.59 FOB, the BWZhT2 LUC Solution (FOB) amounted to 1.07 FOB and the BWZhT2 LUC Solution + PS (Δ Bmax) was found to be 2660.
